From patent US20200277374A1 (Alector, published 2020)
Each block holds one binder with its values, some of them ahead of it.

How the values were obtained:
[1] = molecular target: T1, human Siglec-7 expressed on human cells (primary monocytes, dendritic cells, macrophages, NK cells, … (human, UniProt Q9Y286 19-467)); experiment: FACS, human primary dendritic cells, 10 ug/ml mAb
T1 construct: Endogenous receptor on cells; also called Siglec-7 receptor
Protocol: (§1) Initial characterization of Siglec-7 antibodies involved determining their ability to bind Siglec-7 expressed on human primary monocytes, human primary macrophages, human primary dendritic cells, human primary neutrophils, and human primary natural killer (NK) cells. Cells were harvested, plated at 10⁶/ml in a 96 well plate, and incubated in 100 ul PBS containing 2% FBS, 2 mM EDTA and 10 μg/ml Mab and Fc blocking reagent for 1 hour in ice. Cells were washed twice and incubated in 100 ul PBS containing 2% FBS, 2 mM EDTA and 5 ug/ml PE-conjugated secondary antibody for 30 minutes on ice. Cells were washed twice in cold PBS and analyze by flow cytometry on a BD FACS Canto. Data analysis and calculation of MFI values was performed with FlowJo (TreeStar) software version 10.0.7.
(§2) Percent positive binding and mean fluorescent intensity (MFI) values for cell types bound by Siglec-7 antibodies are listed in Table 4A. Binding is compared to an isotype control. The antibodies bind to human primary monocytes, human primary dendritic cells, and human primary macrophages. In Table 4A, “Buffer” refers to cells that were treated only with the PBS buffer described supra; “Secondary Ab” refers to cells that were treated only with the PE-conjugated secondary antibody; “mIgG1,” “mIgG2a,” and “mIgG2b” refer to isotype control antibodies; and “RDS7” refers to commerically available anti-Siglec-7 antibody Mab1138 (R&D Systems; Cat. No. MAB 1138).

[2] = molecular target: T1, human Siglec-7 expressed on human cells …; experiment: cell-based or functional assay
[3] = molecular target: T2, Histidine-tagged human Siglec-7 (NovoProtein) (human, UniProt Q9Y286 19-357, limits assumed); experiment: SPR (BiaCore T200, 25 C), antibody captured on anti-mouse IgG, Siglec-7-His 35 nM, single-concentration kinetics
T2 construct: Bought protein; also called purified Siglec-7-his tagged protein; not shown: histidine tag
Protocol: SPR data was collected at a rate of 10 Hz at 25′ C on a BiaCore T200 instrument. Data analysis was performed using BiaCore T200 Evaluation Software, version 2.0. HBS-EP+ (100 mM HEPES, 1.5 M NaCl, 30 mM EDTA, 0.5% v/v Surfactant P20, pH 7.4) was used as running buffer and for preparing reagents.
Mouse-derived antibodies (25 nM) against Siglec-7 were captured (60 s contact time, 30 μL/min flow rate, 0 s stabilization time) on a CM5 sensor chip (GE Healthcare) immobilized with anti-mouse IgG. Histidine-tagged human Siglec-7 (NovoProtein) was then flowed over the captured anti-Siglec-7 surface (120 s contact time, 30 μL/min flow rate, 300 s dissociation time). Concentration of antigen ranged from 5 nM to 100 nM, depending on information obtained from an initial screen. Duplicate single-concentration trials were performed and bracketed by a blank (0 nM antigen) sample. The chip surface was regenerated in between cycles using 10 mM glycine-HCl, pH1.7 (60 s contact time, 30 μL/min flow rate, 60 s stabilization time). The resulting SPR signal was obtained as the difference in response from measurements performed on a blank flow cell.
Affinity constants (KD) were calculated from the ratio kd/kₐ. For one antibody (clone 1E8), we validated the single-concentration analysis with a multiple-concentration approach (five concentrations of antigen used, plus one blank).

[4] = molecular target: T3, Siglec-7-Fc (plate immobilized) (human, UniProt Q9Y286 19-357, limits assumed); experiment: RBC solid adhesion assay, plate-coated Siglec-7-Fc, antibody 0.5 or 1.0 ug/ml; % of RBC binding without antibody
T3 construct: also called Siglec-7-Fc protein; immobilized Siglec-7; not shown: Fc part
How it was run: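 Plates coated overnight at RT with 5 μg/ml Siglec-7-Fc and blocked in PBS with BSA and 1 mM CaCl₂. Antibody (0.5 or 1.0 μg/ml) bound 1 h at RT, then RBCs (3.0×10⁶ cells/ml) added for 1 h at RT. Bound RBCs lysed and detected by peroxidase at 450 nm, expressed as % of binding without antibody.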

[5] = molecular target: T1, human Siglec-7 expressed on human cells …; experiment: FACS, human primary macrophages, 10 ug/ml mAb
Protocol: as §1, §2

[6] = molecular target: T1, human Siglec-7 expressed on human cells …; experiment: FACS, human primary monocytes, 10 ug/ml mAb
Protocol: as §1, §2

[7] = molecular target: T1, human Siglec-7 expressed on human cells …; experiment: cell-based or functional assay; remark: listed apart in the source
T107A [8] = molecular target: T4, T107A (human, UniProt Q9Y286); experiment: flow cytometry on HEK-293T cells expressing the mutant, mock signal subtracted
T4 construct: clone of the siglec-7 mutation library; also called Siglec-7 T107A
Protocol: (§3) Shotgun mutagenesis epitope mapping of anti-siglec-7 antibodies was performed using an alanine-scanning library for the siglec-7 protein. […] Each of residues 19 to 353 was mutated, representing the siglec-7 extracellular domain, most to alanine, while alanine codons were mutated to serine. In total, 335 siglec-7 mutant expression constructs were generated, sequences confirmed, and arrayed into a 384-well plate, one mutant per well.
Cells were then incubated with MAbs diluted in 10% o normal goat serum (NGS) (Sigma-Aldrich, St. Louis, Mo.). Prior to library screening, primary MAb concentrations were determined using an independent immunofluorescence titration curve against cells expressing wild-type siglec-7 to ensure that signals were within the linear range of detection. MAbs were detected using 3.75 μg/ml AlexaFluor488-conjugated secondary antibody (Jackson immunoResearch Laboratories, Westgrove, Pa.) in 10% NGS. […] Mean cellular fluorescence was detected using the Intellicyt high throughput flow cytometer (HTFC, Intellicyt, Albuquerque, N. Mex.). MAb reactivities against each mutant clone were calculated relative to wild-type siglec-7 protein reactivity by subtracting the signal from mock-transfected controls, and normalizing to the signal from wild-type siglec-7-transfected controls.

S47A = molecular target: T5, S47A (human, UniProt Q9Y286); experiment: flow cytometry on HEK-293T cells expressing the mutant; mean % of wild-type signal (range of duplicates)
T5 construct: clone of the siglec-7 mutation library; also called Siglec-7 S47A
Protocol: as §3
(§4) Cells were then incubated with MAbs diluted in 10% o normal goat serum (NGS) (Sigma-Aldrich, St. Louis, Mo.). Prior to library screening, primary MAb concentrations were determined using an independent immunofluorescence titration curve against cells expressing wild-type siglec-7 to ensure that signals were within the linear range of detection. MAbs were detected using 3.75 μg/ml AlexaFluor488-conjugated secondary antibody (Jackson immunoResearch Laboratories, Westgrove, Pa.) in 10% NGS. Cells were washed twice with PBS−/− and resuspended in Cellstripper (Cellgro, Manassas, Va.) with 0.1% BSA (Sigma-Aldrich, St. Louis, Mo.). Mean cellular fluorescence was detected using the Intellicyt high throughput flow cytometer (HTFC, Intellicyt, Albuquerque, N. Mex.). MAb reactivities against each mutant clone were calculated relative to wild-type siglec-7 protein reactivity by subtracting the signal from mock-transfected controls, and normalizing to the signal from wild-type siglec-7-transfected controls.

N81A = molecular target: T6, N81A (human, UniProt Q9Y286); experiment: as above
T6 construct: clone of the siglec-7 mutation library; also called Siglec-7 N81A
Protocol: as §3, §4

W74A = molecular target: T7, W74A (human, UniProt Q9Y286); experiment: as above
T7 construct: clone of the siglec-7 mutation library; also called Siglec-7 W74A
Protocol: as §3, §4

R124A = molecular target: T8, R124A (human, UniProt Q9Y286); experiment: as above
T8 construct: clone of the siglec-7 mutation library; also called Siglec-7 R124A
Protocol: as §3, §4

R45A = molecular target: T9, R45A (human, UniProt Q9Y286); experiment: as above
T9 construct: clone of the siglec-7 mutation library; also called Siglec-7 R45A
Protocol: as §3, §4

Q31A = molecular target: T10, Q31A (human, UniProt Q9Y286); experiment: as above
T10 construct: clone of the siglec-7 mutation library; also called Siglec-7 Q31A
Protocol: as §3, §4

I72A = molecular target: T11, I72A (human, UniProt Q9Y286); experiment: as above
T11 construct: clone of the siglec-7 mutation library; also called Siglec-7 I72A
Protocol: as §3, §4

T107A [9] = molecular target: T4, T107A; experiment: as above
Protocol: as §3, §4

M30A (human) = M30A (human) (UniProt Q9Y286); experiment: as above
Y50A (human) = Y50A (human) (UniProt Q9Y286); experiment: as above
V44A (human) = V44A (human) (UniProt Q9Y286); experiment: as above
F48A (human) = F48A (human) (UniProt Q9Y286); experiment: as above
T103A (human) = T103A (human) (UniProt Q9Y286); experiment: as above
T103A (human), sequence (Q9Y286 19-467 T103A limits assumed): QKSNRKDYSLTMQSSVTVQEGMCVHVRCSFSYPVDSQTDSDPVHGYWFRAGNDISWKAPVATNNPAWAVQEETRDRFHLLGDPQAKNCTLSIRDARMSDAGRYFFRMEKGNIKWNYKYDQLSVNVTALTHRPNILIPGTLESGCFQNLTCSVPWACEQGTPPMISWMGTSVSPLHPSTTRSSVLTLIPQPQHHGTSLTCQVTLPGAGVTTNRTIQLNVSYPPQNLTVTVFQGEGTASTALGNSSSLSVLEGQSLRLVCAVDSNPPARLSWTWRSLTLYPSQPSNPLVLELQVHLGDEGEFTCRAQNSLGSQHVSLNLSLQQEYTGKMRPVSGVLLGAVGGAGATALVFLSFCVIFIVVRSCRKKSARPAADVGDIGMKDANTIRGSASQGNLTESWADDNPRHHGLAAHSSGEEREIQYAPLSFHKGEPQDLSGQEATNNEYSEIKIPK

T1 sequence (Q9Y286 19-467): as the sequence (Q9Y286 19-467 T103A limits assumed) above, with A85T counted along it
T4 sequence (Q9Y286 19-467 T107A limits assumed): as the sequence (Q9Y286 19-467 T103A limits assumed) above, with A85T, T89A counted along it
V44A (human), sequence (Q9Y286 19-467 V44A limits assumed): as the sequence (Q9Y286 19-467 T103A limits assumed) above, with V26A, A85T counted along it
T11 sequence (Q9Y286 19-467 I72A limits assumed): as the sequence (Q9Y286 19-467 T103A limits assumed) above, with I54A, A85T counted along it
T2 sequence (Q9Y286 19-357 limits assumed): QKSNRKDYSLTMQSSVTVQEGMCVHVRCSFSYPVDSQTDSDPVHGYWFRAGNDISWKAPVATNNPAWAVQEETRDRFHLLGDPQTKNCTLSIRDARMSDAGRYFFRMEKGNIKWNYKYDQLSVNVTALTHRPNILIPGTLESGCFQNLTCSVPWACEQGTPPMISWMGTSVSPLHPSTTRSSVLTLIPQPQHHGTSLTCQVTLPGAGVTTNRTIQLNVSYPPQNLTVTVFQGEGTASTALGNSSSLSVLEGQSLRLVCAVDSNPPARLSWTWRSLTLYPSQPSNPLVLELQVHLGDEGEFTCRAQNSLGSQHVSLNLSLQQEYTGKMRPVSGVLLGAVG
T3 sequence (Q9Y286 19-357 limits assumed): as above
F48A (human), sequence (Q9Y286 19-467 F48A limits assumed): as the sequence (Q9Y286 19-467 T103A limits assumed) above, with F30A, A85T counted along it
M30A (human), sequence (Q9Y286 19-467 M30A limits assumed): as the sequence (Q9Y286 19-467 T103A limits assumed) above, with M12A, A85T counted along it
Y50A (human), sequence (Q9Y286 19-467 Y50A limits assumed): as the sequence (Q9Y286 19-467 T103A limits assumed) above, with Y32A, A85T counted along it
T7 sequence (Q9Y286 19-467 W74A limits assumed): as the sequence (Q9Y286 19-467 T103A limits assumed) above, with W56A, A85T counted along it
T8 sequence (Q9Y286 19-467 R124A limits assumed): as the sequence (Q9Y286 19-467 T103A limits assumed) above, with A85T, R106A counted along it
T5 sequence (Q9Y286 19-467 S47A limits assumed): as the sequence (Q9Y286 19-467 T103A limits assumed) above, with S29A, A85T counted along it
T9 sequence (Q9Y286 19-467 R45A limits assumed): as the sequence (Q9Y286 19-467 T103A limits assumed) above, with R27A, A85T counted along it
T10 sequence (Q9Y286 19-467 Q31A limits assumed): as the sequence (Q9Y286 19-467 T103A limits assumed) above, with Q13A, A85T counted along it
T6 sequence (Q9Y286 19-467 N81A limits assumed): as the sequence (Q9Y286 19-467 T103A limits assumed) above, with N63A, A85T counted along it

- % Positive [1]: 99.7%
- MFI [1]: 5000
- Percent Siglec-7 Surface Expression, DCs [2]: 96.9%
- Percent Siglec-7 Surface Expression, Monocytes [2]: 39%
- Percent Siglec-7 Surface Expression, U937 cells [2]: 86.3%
- Kd [3]: 400 pM
- Percent RBC Binding to Siglec-7 [4]: 7.9%
- % Positive [5]: 99.3%
- MFI [5]: 12300
- % Positive [6]: 99.3%
- MFI [6]: 472
- Percent Siglec-7 Surface Expression, Macrophages [7]: 13.1%
- Percent Siglec-7 Surface Expression, Microglia [7]: 28.1%
- Percent Siglec-7 Surface Expression, NK cells [7]: 124%
B1: anti-Siglec-7 antibody 7F12 (antibody, V domains shown)
VH: QVQLQQSGSELRSPGSSVKLSCKDFDSEVFPITYMNWVRQKPGHGFEWIGDILPSIGRTMYGEKFEDKATLDADTVSNTAYLELNSLTSEDSAIYYCARSEGYLLAYWGQGTLVTVSA
VL: DVLMTQTPLSLPVSLGDQASISCRSSQSLVHSTGNTYLHWYLQKPGQSPKLLIYKVSNRFSGVPDRFSGSGAGTDFTLKISRVEAEDLGVYFCSQNTHVPYTFGGGTKLEIK
notes: Variable domains assembled from FR and CDR entries

- binding result (T107A [8]): no binding
- Binding Reactivity (% WT) (S47A): 1.5 % WT
- Binding Reactivity (% WT) (N81A): 138 % WT
- Binding Reactivity (% WT) (W74A): 79.8 % WT
- Binding Reactivity (% WT) (R124A): 81.1 % WT
- Binding Reactivity (% WT) (R45A): 1.6 % WT
- Binding Reactivity (% WT) (Q31A): 18.2 % WT
- Binding Reactivity (% WT) (I72A): 92.8 % WT
- Binding Reactivity (% WT) (T107A [9]): 0.4 % WT
- Binding Reactivity (% WT) (M30A (human)): 20.1 % WT
- Binding Reactivity (% WT) (Y50A (human)): 18.2 % WT
- Binding Reactivity (% WT) (V44A (human)): 13.3 % WT
- Binding Reactivity (% WT) (F48A (human)): 13.9 % WT
- Binding Reactivity (% WT) (T103A (human)): 6.3 % WT
B2: 10B5 Fab (Fab, V domains shown)
VH: QVHLQQSGPELVKPGASVKISCKASGYAFTNCWMNWVRQRPGKGLDWIGRIFPGNGHTNYSGKFKDKATLTEDKSSSTAYMQLSSLTSEDSAVYFCARDYSDYYFDYWGQGTTLTVSS
VL: DVQMTQTTSSLSASLGDRVTISCRASQDINTYLNWYQQKPDGTVKLLIYYTSRLHSGVPSRFSGSGSGTDYSLTISNLEQEDIATYFCQQGNTLPWTFGGGTKLEIK
